According to the DeepSol protein solubility set:

Assay: soluble on expression in E. coli; label from the status in PepcDB or PDB records

Soluble on expression in E. coli, not soluble:
MGSDKIHHHHHHMSETYPILIHLGEKLNRVIVGQSQLIQQLLVGLLSGGHIILEGVPGTGKTLLVKVLARLIQADFHRVQLTPDVLPSDITGTNIFDLNNRNFTLKKGPVFTEVLLADEINRTPPKTQAALLEAMEEMQVTLDGESLPLPDLFWVIATQNPLEFEGTYPLPEAQLDRFLFKLVVDYPDQTAEKQMLLNRQAGFAARRSDINSLQPIATVTDILEARQAVKAVKVSESIIDYLLALVRTSRQYPDLALGASPRAAGAWLQTSQAVAWLEGRDFVTPDDIKAVASPLLRHRLILKPEAMLDGLQIDAVIAAVVNQVAVPR
MGSDKIHHHHHHMSFFDTLSGLSREQLRMALYSTTPAQVETAIEGEQGNLGHLLALLSPAAEEYLEPMAQRAAALTRQRFGHNIGLYLPLYLSNLCANECDYCGFTMSNKLKRKVLSHDELAAEMAVIKPQGFDSILLVSGEHETKVGIEYFADILPLVKAEFSHVAMEVQPLSREHYEILVEKGLDAVMLYQETYDPETYRRHHLRGNKQDYGYRLASPERIAQAGVDKIGLGVLLGLDDWRMDALLMGYHLDYLERRFWRSRYSISLPRLRPCVGGITPKVQLTDKGLVQLICAFRLFNEQLEISLSTRETPSLRDNLLGLGITQMSAGSRTEPGGYVNPAAQLDQFEISDERSAAEVASVLRSRGFTPVWKDWEAGWIGAG
MGSDKIHHHHHHMSGPQGRLAIIAGSGMLPVYVAEAARAAGEDPFILPLKNEADQRWDGFQSAVIGVGDMAGLSSLIKRHGIKRVVMSGGVKKRPNFKEIHVNLRFLVKLPFAVKTLLSGGDDAVLKMVIQLIESQGCRVVGAHEIAPQLLAELGPLGSSRPTDDDRRDIAAAAKAADALGRLDVGQGAVSVGGRIVALEGVEGTDRMLQRVAELRSEGRISSRRSGVLVKLCKPQQDIRADLPTIGQSTIENAARAGLSGIAVQAGRALLLQRQETLRQADAAGIFISGIELAPEGEAWLS
MGSDKIHHHHHHMSHTEVKLKIPFGNKLLDAVCLVPNKSLTYGIILTHGASGDMNLPHLMSLASHLASHGFFCLRFTCKGLNIVHRIKAYKSVLNYLKTSGEYKLAGVFLGGRSMGSRAAASVMCHIEPDDGDDFVRGLICISYPLHHPKQQHKLRDEDLFRLKEPVLFVSGSADEMCEKNLLEKVAQKMQAPHKIHWIEKANHSMAVKGRSTNDVFKEINTQILFWIQEITEMDKKCH
MGSDKIHHHHHHMSHTITVIGLGAGDLEQLPLGVYRLILNQDHLYVRTKDHPVIEELIGEGHSFTFFDSIYEQHETFEAVYDAIVAELLEAAKSKEILYAVPGHPLVAERTVQLLLEAEREGRVTVKILGGQSFLDPMFSALKIDPVEGCQVLDGTMLSRDEVHVTQHIVICQVYDQMIASHVKLTLMELLPDDYEVTVATAVGTKNEKLETVPLYELDRVTTISNLTAVYVPPVEDEVILYQDFRTLRQIIATLRGPDGCPWDKKQTHQSLKKYLLEEAYEVLEAIDEENEDHLVEELGDLLLQVLLHAQIGEDDGWFQIEDVIRSISEKMIRRHPHVFGERQVEDAEDVVETWDEIKKAEKGEDQASTSILGKIPKGLPSLMLAFELQKKAAKVGFDWAEVEPMWAKLDEEMHEFKEEIQAGHSQEMAKEFGDVLFVLVNIGRFYNIYAEEALHRTNEKFKRRFQSIEQAITAKGDTLEESSLEEMDVLWNQAKESESQGE
MGSDKIHHHHHHMSIELIDLHPAPADLKQLVQSGFKCQPRQLPAWVLYDAKGSRLFAQICEQPEYGLTRTEIKLLEENAPAIAKAVGDGVIVEFGIGNARKVSPLLNAIRPSTFVALDISQAALKDSLTRLASTYPMVSILGICCDHSSMQALPPHPRLEGVRCIGFFPGSSLGNFTPKEAVAVLRRFRKLLGGGPLLLGLDQPRDPIQLEAAYNDEAGISAAFARNLLHRLNRELEADFRPDQFSYRARWQEEFHRIEMALVSRCSQTIVIDNSTWSFSAGEPLITEYSVKYNPQEAARLAEKAGWRINQRWHDSADSLSLHLLEPSD
MGSDKIHHHHHHMSIIMERQRGNQLLRIISEYMTNLKEKGQKLAKDNTMENLVNFTPRYNLIKSYLDDVERALDRSGLCYVKITFITLSKLLTGWSPIYFITEVPLAWDMILDTPYIAGSEIKGIVKNYFKEVTSNDKVESCLYGDEGKMGKVIFFNAYPIDGKNVLTYDIITPHYNGAKDEYNVKPIPIKFLAINKGITFKTYLAFDNKELNECGKDSLYLLLKTMIFSMRIGWGRKVTRGYGSLDIKEMDVKCHGE
MGSDKIHHHHHHMSIQTPIRGLRSFCVASKCLSFKHAAAQLFLTPSAVSHQIKQLEEQLGFMLFKRNTRSIELTSSGKQFYQSIQPIIHQLESTISEFTHNQQNHTIVISLPEFFASELFIPRLSEWSEKNPSINLQLETVKAGSEPSQIADLSIVLANGKPNASIVQELFPIRYAAACNKKLYKKLKNSGFKALKNTPLILHRSRPWSWHQWAENLGVNDFDPKQIIQFDSMFGVARAAQQGMGIALVPLPMSKTWFSEQLLVKLFDEELNTNDRYYLIQHENMESKVELTLFANWVKETFMTDYL
MGSDKIHHHHHHMSISEQCVIEIDKYIDYFKKNTSQPNILAKLFKTDSSYYVYDTGTNKVLTCGEYEYSILGKIIDNKFDEISRINDDADKSGFYEALENVRQAIEKEDILRGGKEWKFVSKGHFEELDKKLNYELDQITLELTEKCNLRCRYCIYNESYEHKRNFGNKDMPIEIAEKAIDYANLHSGKEKGVGVTFYGGEPLVNFKLLKHSIEYSRKVIKDKKLTFSLTSNLTLMTPEIATYLASIENLTILCSIDGPEEIHDSYRKDINGNGTFKRAIRGLKYLIEAFGDKANKAVMMNMVFTPPYSIEKVNKIETFINSLDWLPKGLRISMTYPSTGSVDDTPPKGCEKNYGMELIQWSESKYKSELKSDGKIDMFNEEFVVHPILRIHGRRISAKSESGYPVNGCCIPGSRKLYVTVDGNFQICERINGSPIIGNVFNGIDENKIKNEVIDEFINKSIKDCSRCWAARLCNVCYSHCYTDGKLDMKEKKRYCIRSRERALRSLVFYHKCAEINPEKLKYLNKIEVS
MGSDKIHHHHHHMSIVGNVENLINGVGELWNKYVKHEFILKMRDGSLPLDIFRYYLIQDGKYVEDMLRALLIASSKGPIDKVTKILNLVFSSRDKGLETHGKLYSKLDISRDVIVKTGYNLINYAYTRHLYYYANLDWNKFLVAWTPCMFGYSIVGDYVIDSPNEVYKTWASFYASTEYKKRIEAILYALDEVSITEDLLNIFINSVRFEIGFWDASLRKDPTVY
MGSDKIHHHHHHMSIYRKIDRNKIQFDFIVHKTGKNFFEDEILKLGGRIYRLPNKRKHPFKYKQEFLNVIKNYKIIHVHSVYAFTYYEVKWARQCQKSVILHSHNSDAKLLRKIIHYLFKHLQNHYVSVRLSPSKQAAKWMFNEGHDKVVYLYNGFDTTKFQFDMNSRIEIREQLGLANNDYIIGCVGRLDWQKDPIYLLRLFEKLKANDNAYKLIFIGDGSYRQTLERETHQKGLVNDVIFTGSVSNVPEYLSALDIFVLPTRYEGLGISLIEAQINGLPVFTNKDVPKEAVINQNMYLLDKGDSELWVDAINKELNVINLKKRKVNLSDFNQYNIETVVKKLQNIYLQLLS
MGSDKIHHHHHHMSKENIFDALKSGKIDYVRVEFVDILGNTKGRSLRRAEFENVINDNKGVDYPESLALMDYKDRPIKSRYEDIIAIPDLNTFVAIPYLERTARVLSFLAQPDGLPYPYCSRSILNKAIEKLKEAGYTLQVSFEPTFYLLNSALNPADYSKAFSLEGLLEQQNFLKLLIKYLEEIDIKVETINKHYGPGQYEVKLSQKPVLEAADSLISSREVIRDTAKMNNVIATFMPKPFKDYPSSSMDITLSLQTVDGKDIMYDPNDSKGIGLSKIAYNFISGILEHLPSILSIAAPTVNSYKRFKEVVTPNMPGIGSERHYIVRLPSYYKDTHQVEFRLADPLANPYILLASMIYAGLDGIERNLMANVNEYYGTLPQTLKESLSRLENDTYMKYNLGQDLISIYINIKNIEIEEYESQITEWERDYYLKAGW
MGSDKIHHHHHHMSKIEELPPSDTDDHSYSSKPGDVFLAFVDAPVKETDDILVEDSFIGGEPKWLHPDSEPPAELLKCGACKSADNMKLLLQAFSPLDDEQMSAIQQRLGINNMSYINPQDDRVLYVFLCTECQRKGNSVRCIRGVKKNKNVDSLSEKMASTSLEKDFQINPFDLSNNSDSKCNAFSSNPFGGANANPFGADSINSNISQSKDEGKKKESATVSAKTARKLHDLQKDKEYDGNKCFKSCLLYVEEETFKNKKPAHLQLPKNLKIDKEALDLTGDEDLEKDPIKLDPRTEKLSKFLDDDTFQKFQEVVGYNPLQVLRYDLGGKPLLYAETKVDILSTVPRPGYNPSSQRIFEMQLMPKMIFDLEEVVSVDNGMEWGTILVFTDVENYMPEFDEHGVGYVEECVKVQWESRT
MGSDKIHHHHHHMSKIFAQDTDCSFLIEQAVKAPSGHNTQPWTFRIKETGIDILPDFTKTLPVVDPDNRELFVSLGCATENLCVAAAHKGYETMVSIAENGTIHIELTKQDSDTPSPLFPHISVRQTNRSVYDGNTIPVNDIVALGEKSDMEPCVGAHFFKNGTREFDAISEMVCEGNSIQMRDKKFKEELQQWMRYNKKHQDATRDGLSYAVFGAPNLSRFIAKAIITRLINEKSQNRNDRRKIASSSHFVLFTTSNNTVVQWIKLGRALEHILLKATGMGISHAYMNQPNEVQGLSGKMAEILGIEDEYPTVLIRLGYGSKMPYSLRRSVQSCIIPNSFD
MGSDKIHHHHHHMSKNIKTPTNQKVLTNVAVVRMKKTGKRFEIACYKNKVVNWRNKSEKDIDEVLQTHTVFSNVSKGQLSKKEELIAAFGIEDQLEIYSRQRRLASVGKRASGGFRSIAERGSFFLLKNVSQLIASMVVNPETKRPVPPSVIDKALQEMHFSLKPNRSSKQQALDAIPKLRETLKIERAKMKIRVAIPTKEAKSVHTKLKTLFSDVEVDDWQDGSLEMVGLIEPGSFRALDDLVRNETKGHGRLEILSLKDVVEGELQIS
MGSDKIHHHHHHMSKTRYYLEQCIPEMDDLVEKGLFTKNEVSLIMKKRTDFEHRLNSRGSSINDYIKYINYESNVNKLRAKRCKRILQVKKTNSLSDWSIQQRIGFIYQRGTNKFPQDLKFWAMYLNYMKARGNQTSYKKIHNIYNQLLKLHPTNVDIWISCAKYEYEVHANFKSCRNIFQNGLRFNPDVPKLWYEYVKFELNFITKLINRRKVMGLINEREQELDMQNEQKNNQAPDEEKSHLQVPSTGDSMKDKLNELPEADISVLGNAETNPALRGDIALTIFDVCMKTLGKHYINKHKGYYAISDSKMNIELNKETLNYLFSESLRYIKLFDEFLDLERDYLINHVLQFWKNDMYDLSLRKDLPELYLKTVMIDITLNIRYMPVEKLDIDQLQLSVKKYFAYISKLDSASVKSLKNEYRSYLQDNYLKKMNAEDDPRYKILDLIISKL
MGSDKIHHHHHHMSLLDKLRELGISENLIKEIEKFRSQYPVDKEYESRIPVPTQFYYGSDVWEQAITAVLCGENLLLVGEKATGKNLFAENLAGVFNRPRWDVSFHVNMDAASLIGTDTFSAGEVTFRPGPVYTAAKTGGFAVLDEINMAKSEAMAVLHATLDFRRTIDVPGYDRLSLHPATRFIATMNYGYAGTKELNEALVSRFAVIRMPMISKESLVKLIKEHYPTIREAGANELAEVFLELHTKCKNGEISSKALDLRGLIGSIGMMEKGLNIYAALDMGITNKSFDEYEQTLIRDTIRARISRKMSREQLFC
